We go through 15 molecules from patent US20240117334A1, “FACTOR B PROTEASES” (Vertex Pharmaceuticals Incorporated, priority 2021, published 2024).

B1: chymase C22S/P38Q/K40A/F41R/L99H/V138I/D175N/A190S/V213A/S218I/A226R (enzyme)
chain: IIGGTESKPHSRPYMAYLEIVTSNGQSARCGGFLIRRNFVLTAAHCAGRSITVTLGAHNITEEEDTWQKLEVIKQFRHPKYNTSTHHHDIMLLKLKEKASLTLAVGTLPFPSQFNFVPPGRMCRIAGWGRTGVLKPGSDTLQEVKLRLMDPQACSHFRNFDHNLQLCVGNPRKTKSSFKGDSGGPLLCAGVAQGIASYGRIDAKPPRVFTRISHYRPWINQILQAN
B2: chymase C22S/P38Q/K40M/F41R/V138I/F173L/D175R/A190S/V213A/S218T/A226R (enzyme)
chain: IIGGTESKPHSRPYMAYLEIVTSNGQSMRCGGFLIRRNFVLTAAHCAGRSITVTLGAHNITEEEDTWQKLEVIKQFRHPKYNTSTLHHDIMLLKLKEKASLTLAVGTLPFPSQFNFVPPGRMCRIAGWGRTGVLKPGSDTLQEVKLRLMDPQACSHLRRFDHNLQLCVGNPRKTKSSFKGDSGGPLLCAGVAQGIASYGRTDAKPPRVFTRISHYRPWINQILQAN
B3: chymase C22S/P38Q/K40M/F41R/V138I/F173Y/D175Y/A190S/V213A/S218I/A226R (enzyme)
chain: IIGGTESKPHSRPYMAYLEIVTSNGQSMRCGGFLIRRNFVLTAAHCAGRSITVTLGAHNITEEEDTWQKLEVIKQFRHPKYNTSTLHHDIMLLKLKEKASLTLAVGTLPFPSQFNFVPPGRMCRIAGWGRTGVLKPGSDTLQEVKLRLMDPQACSHYRYFDHNLQLCVGNPRKTKSSFKGDSGGPLLCAGVAQGIASYGRIDAKPPRVFTRISHYRPWINQILQAN
B4: chymase C22S/P38Q/K40A/F41K/L99N/V138I/D175H/A190S/V213A/S218V/A226R (enzyme)
chain: IIGGTESKPHSRPYMAYLEIVTSNGQSAKCGGFLIRRNFVLTAAHCAGRSITVTLGAHNITEEEDTWQKLEVIKQFRHPKYNTSTNHHDIMLLKLKEKASLTLAVGTLPFPSQFNFVPPGRMCRIAGWGRTGVLKPGSDTLQEVKLRLMDPQACSHFRHFDHNLQLCVGNPRKTKSSFKGDSGGPLLCAGVAQGIASYGRVDAKPPRVFTRISHYRPWINQILQAN
B5: chymase C22S/K40M/F41V/K192R/A226R (enzyme)
chain: IIGGTESKPHSRPYMAYLEIVTSNGPSMVCGGFLIRRNFVLTAAHCAGRSITVTLGAHNITEEEDTWQKLEVIKQFRHPKYNTSTLHHDIMLLKLKEKASLTLAVGTLPFPSQFNFVPPGRMCRVAGWGRTGVLKPGSDTLQEVKLRLMDPQACSHFRDFDHNLQLCVGNPRKTKSAFRGDSGGPLLCAGVAQGIVSYGRSDAKPPRVFTRISHYRPWINQILQAN
B6: chymase C22S/K40L/F41A/K192R/A226R (enzyme)
chain: IIGGTESKPHSRPYMAYLEIVTSNGPSLACGGFLIRRNFVLTAAHCAGRSITVTLGAHNITEEEDTWQKLEVIKQFRHPKYNTSTLHHDIMLLKLKEKASLTLAVGTLPFPSQFNFVPPGRMCRVAGWGRTGVLKPGSDTLQEVKLRLMDPQACSHFRDFDHNLQLCVGNPRKTKSAFRGDSGGPLLCAGVAQGIVSYGRSDAKPPRVFTRISHYRPWINQILQAN
B7: chymase C22S/P38Q/K40L/F41R/V138I/F173Y/D175R/A190S/V213A/S218T/A226R (enzyme)
chain: IIGGTESKPHSRPYMAYLEIVTSNGQSLRCGGFLIRRNFVLTAAHCAGRSITVTLGAHNITEEEDTWQKLEVIKQFRHPKYNTSTLHHDIMLLKLKEKASLTLAVGTLPFPSQFNFVPPGRMCRIAGWGRTGVLKPGSDTLQEVKLRLMDPQACSHYRRFDHNLQLCVGNPRKTKSSFKGDSGGPLLCAGVAQGIASYGRTDAKPPRVFTRISHYRPWINQILQAN
B8: chymase C22S/P38Q/K40M/F41R/V138I/F173S/D175Y/A190S/V213A/S218V/A226R (enzyme)
chain: IIGGTESKPHSRPYMAYLEIVTSNGQSMRCGGFLIRRNFVLTAAHCAGRSITVTLGAHNITEEEDTWQKLEVIKQFRHPKYNTSTLHHDIMLLKLKEKASLTLAVGTLPFPSQFNFVPPGRMCRIAGWGRTGVLKPGSDTLQEVKLRLMDPQACSHSRYFDHNLQLCVGNPRKTKSSFKGDSGGPLLCAGVAQGIASYGRVDAKPPRVFTRISHYRPWINQILQAN
B9: chymase C22S/L99R/F173L/K192R/Y215H/R217T/S218V/A226R (enzyme)
chain: IIGGTESKPHSRPYMAYLEIVTSNGPSKFCGGFLIRRNFVLTAAHCAGRSITVTLGAHNITEEEDTWQKLEVIKQFRHPKYNTSTRHHDIMLLKLKEKASLTLAVGTLPFPSQFNFVPPGRMCRVAGWGRTGVLKPGSDTLQEVKLRLMDPQACSHLRDFDHNLQLCVGNPRKTKSAFRGDSGGPLLCAGVAQGIVSHGTVDAKPPRVFTRISHYRPWINQILQAN
B10: chymase C22S/L99Y/F173L/K192R/Y215H/R217T/S218V/A226R (enzyme)
chain: IIGGTESKPHSRPYMAYLEIVTSNGPSKFCGGFLIRRNFVLTAAHCAGRSITVTLGAHNITEEEDTWQKLEVIKQFRHPKYNTSTYHHDIMLLKLKEKASLTLAVGTLPFPSQFNFVPPGRMCRVAGWGRTGVLKPGSDTLQEVKLRLMDPQACSHLRDFDHNLQLCVGNPRKTKSAFRGDSGGPLLCAGVAQGIVSHGTVDAKPPRVFTRISHYRPWINQILQAN
B11: chymase C22S/K40L/F41V/G151R/K192R/A226R (enzyme)
chain: IIGGTESKPHSRPYMAYLEIVTSNGPSLVCGGFLIRRNFVLTAAHCAGRSITVTLGAHNITEEEDTWQKLEVIKQFRHPKYNTSTLHHDIMLLKLKEKASLTLAVGTLPFPSQFNFVPPGRMCRVAGWGRTGVLKPRSDTLQEVKLRLMDPQACSHFRDFDHNLQLCVGNPRKTKSAFRGDSGGPLLCAGVAQGIVSYGRSDAKPPRVFTRISHYRPWINQILQAN
B12: chymase C22S/L99F/F173K/K192R/R217S/S218I/A226R (enzyme)
chain: IIGGTESKPHSRPYMAYLEIVTSNGPSKFCGGFLIRRNFVLTAAHCAGRSITVTLGAHNITEEEDTWQKLEVIKQFRHPKYNTSTFHHDIMLLKLKEKASLTLAVGTLPFPSQFNFVPPGRMCRVAGWGRTGVLKPGSDTLQEVKLRLMDPQACSHKRDFDHNLQLCVGNPRKTKSAFRGDSGGPLLCAGVAQGIVSYGSIDAKPPRVFTRISHYRPWINQILQAN
B13: chymase C22S/L99H/F173Y/K192R/Y215K/R217S/S218V/A226R (enzyme)
chain: IIGGTESKPHSRPYMAYLEIVTSNGPSKFCGGFLIRRNFVLTAAHCAGRSITVTLGAHNITEEEDTWQKLEVIKQFRHPKYNTSTHHHDIMLLKLKEKASLTLAVGTLPFPSQFNFVPPGRMCRVAGWGRTGVLKPGSDTLQEVKLRLMDPQACSHYRDFDHNLQLCVGNPRKTKSAFRGDSGGPLLCAGVAQGIVSKGSVDAKPPRVFTRISHYRPWINQILQAN
B14: chymase C22S/L99R/F173Y/K192R/S218L/A226R (enzyme)
chain: IIGGTESKPHSRPYMAYLEIVTSNGPSKFCGGFLIRRNFVLTAAHCAGRSITVTLGAHNITEEEDTWQKLEVIKQFRHPKYNTSTRHHDIMLLKLKEKASLTLAVGTLPFPSQFNFVPPGRMCRVAGWGRTGVLKPGSDTLQEVKLRLMDPQACSHYRDFDHNLQLCVGNPRKTKSAFRGDSGGPLLCAGVAQGIVSYGRLDAKPPRVFTRISHYRPWINQILQAN
B15: chymase C22S/K40M/F41V/G151R/K192R/A226R (enzyme)
chain: IIGGTESKPHSRPYMAYLEIVTSNGPSMVCGGFLIRRNFVLTAAHCAGRSITVTLGAHNITEEEDTWQKLEVIKQFRHPKYNTSTLHHDIMLLKLKEKASLTLAVGTLPFPSQFNFVPPGRMCRVAGWGRTGVLKPRSDTLQEVKLRLMDPQACSHFRDFDHNLQLCVGNPRKTKSAFRGDSGGPLLCAGVAQGIVSYGRSDAKPPRVFTRISHYRPWINQILQAN

The target in this test is Human Factor B (human) (UniProt P00751). Kind of test: cell-based or functional assay.
Chain of Human Factor B (human) (P00751 26-764 limits assumed): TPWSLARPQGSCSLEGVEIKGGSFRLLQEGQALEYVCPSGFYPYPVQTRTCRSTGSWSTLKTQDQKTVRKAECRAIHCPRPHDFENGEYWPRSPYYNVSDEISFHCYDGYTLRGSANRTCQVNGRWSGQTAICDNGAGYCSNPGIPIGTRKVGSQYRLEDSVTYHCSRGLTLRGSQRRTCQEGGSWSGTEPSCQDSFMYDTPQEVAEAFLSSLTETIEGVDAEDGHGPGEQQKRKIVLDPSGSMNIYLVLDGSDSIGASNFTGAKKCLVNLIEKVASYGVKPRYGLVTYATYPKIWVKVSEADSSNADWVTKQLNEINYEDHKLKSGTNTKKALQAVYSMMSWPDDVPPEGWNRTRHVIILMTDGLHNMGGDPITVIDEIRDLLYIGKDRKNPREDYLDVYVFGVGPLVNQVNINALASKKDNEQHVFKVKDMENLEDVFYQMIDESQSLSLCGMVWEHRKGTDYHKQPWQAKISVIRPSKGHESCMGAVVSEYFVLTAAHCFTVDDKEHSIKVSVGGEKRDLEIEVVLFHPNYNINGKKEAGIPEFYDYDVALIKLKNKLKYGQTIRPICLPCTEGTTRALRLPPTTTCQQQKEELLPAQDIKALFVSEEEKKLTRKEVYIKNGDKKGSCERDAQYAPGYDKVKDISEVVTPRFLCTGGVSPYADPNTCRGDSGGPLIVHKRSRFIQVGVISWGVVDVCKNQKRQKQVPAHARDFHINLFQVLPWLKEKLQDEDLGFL
Turning to B1, the fB Cleavage EC50 was 0.17 µM.

In turn, B2 had a fB Cleavage EC50 of 0.051 µM.

In the case of B3, the fB Cleavage EC50 was 0.465 µM.

Regarding B4, the fB Cleavage EC50 is 0.121 µM.

Consider B5, for which the fB Cleavage EC50 came to 7.77 µM.

As to B6, the fB Cleavage EC50 came to 7.39 µM.

As for B7, the fB Cleavage EC50 came out at 0.223 µM.

Consider B8, for which the fB Cleavage EC50 is 0.287 µM.

As to B9, the fB Cleavage EC50 was 7.77 µM; the fB Cleavage, 64% A2M-depl plasma EC50 was 2.29 µM; the fB Cleavage, 64% plasma EC50 was determined as 4.38 µM; the fB Cleavage, 80% plasma EC50 stood at 7.59 µM.

In turn, B10 came in with a fB Cleavage, 64% A2M-depl plasma EC50 of 4.58 µM and a fB Cleavage, 64% plasma EC50 of 12.4 µM.

B11 had a fB Cleavage EC50 of 7.5 µM.

Consider B12, for which the fB Cleavage EC50 amounted to 4 µM.

Turning to B13, the fB Cleavage EC50 was found to be 3.46 µM.

Turning to B14, the fB Cleavage EC50 worked out at 0.555 µM.

On to B15, for which the fB Cleavage EC50 was determined as 7.77 µM.
